Values joined by “and” are separate entries in the source; they are usually repeats but may differ in a detail not shown here. Equal entries are not always repeated.

The target in the first experiment is T1, H-2Db (mouse).
T1 chain 1: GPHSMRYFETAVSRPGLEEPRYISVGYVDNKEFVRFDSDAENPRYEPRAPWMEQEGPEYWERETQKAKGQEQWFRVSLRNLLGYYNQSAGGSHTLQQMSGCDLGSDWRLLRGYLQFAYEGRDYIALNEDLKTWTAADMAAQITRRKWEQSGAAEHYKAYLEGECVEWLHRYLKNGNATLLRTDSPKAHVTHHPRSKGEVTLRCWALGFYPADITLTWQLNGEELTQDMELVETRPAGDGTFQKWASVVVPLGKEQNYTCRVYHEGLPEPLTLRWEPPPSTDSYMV
T1 chain 2: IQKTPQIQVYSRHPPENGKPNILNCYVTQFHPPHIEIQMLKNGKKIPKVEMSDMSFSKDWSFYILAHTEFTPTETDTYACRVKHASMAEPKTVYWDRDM
Briefly: competition. As to conditions: modification not given.
In the case of FQPQNGQFI [LCMV NP 396], the IC50 (commonly the concentration needed to halve the response being measured) is 0.0049 µM and 0.0069 µM and 0.017 µM. Same read-out and setting: the same measure for AAAAYAAAAM [F079.06]: above 44 µM. Same read-out and setting: the same measure for TGICNQNII [FluA NM 46]: 0.021 µM and 0.013 µM; for AAAAYAAM [F079.05]: above 44 µM.

For the molecule SIQFFGEL [F079.04], the IC50 is above 44 µM. On the same count and under the same terms, next, RNPRFYNL [1079.14]: above 44 µM.

KVPRNQDWL [F142.01] gave an IC50 of 0.038 µM. The same measure, in the same setting: the same measure for SIQFFGERAL [F079.03]: above 44 µM; for FQPQNGQFIHFY [928.15]: 0.28 µM; for SSMHNALHI [16.0029]: 0.0076 µM.

AAAANAAAM [F079.08] registered an IC50 of 0.023 µM. Still for that read-out and setting: the same measure for SQVMNLHNL [F100.04]: 0.0023 µM.

In turn, KQYLNLYPV [HBV pol 668] showed an IC50 of 0.0034 µM. This IC50 and that of the molecule before are within 1.5-fold of each other.

SGVENPGGYCL [928.07] showed an IC50 of 0.06 µM. On the same count and under the same terms, next, SHYAFSPM [F190.04]: above 88 µM; TALANTIEV [FluA POL1 141]: 0.0037 µM and 0.016 µM; ASNENMDAM [1275.03]: 0.028 µM.

Regarding RGPGRAFVTI [1087.01], the IC50 was determined as 22 µM.

For a further experiment, the target named is T2, H-2Kb (mouse).
T2 chain 1: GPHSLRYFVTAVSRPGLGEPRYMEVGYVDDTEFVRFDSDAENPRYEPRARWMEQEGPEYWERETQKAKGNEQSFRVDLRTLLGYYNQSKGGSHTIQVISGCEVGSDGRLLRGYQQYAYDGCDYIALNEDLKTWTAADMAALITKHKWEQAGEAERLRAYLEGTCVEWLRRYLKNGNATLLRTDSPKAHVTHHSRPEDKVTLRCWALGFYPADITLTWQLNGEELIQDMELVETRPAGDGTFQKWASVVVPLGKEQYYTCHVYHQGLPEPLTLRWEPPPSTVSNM
T2 chain 2: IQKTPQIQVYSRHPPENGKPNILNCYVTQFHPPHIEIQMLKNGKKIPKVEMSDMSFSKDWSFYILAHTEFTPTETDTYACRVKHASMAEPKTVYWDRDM
Briefly: competition. As to conditions: modification not given.
Take FFYRYGFV [FluA POL1 495]: the IC50 was 0.35 µM.

In the case of LAVLYCLL [22.0012], the half-inhibitory concentration (IC50) was determined as 0.072 µM.

Take FQPQNGQFI [LCMV NP 396]: the concentration for half-maximal inhibition (IC50) is > 31 µM and 9.51 µM. Still for that read-out and setting: next, SVYDFFVWL [F117.14]: 0.001 µM; FAPGYNPAL [1275.04]: 0.002 µM. The molecule GVYQFKSV [14.0018] yielded an IC50 of 0.011 µM.

Consider VYIEVLHL [FluA POL3 227], for which the concentration for half-maximal inhibition (IC50) was 0.075 µM and 0.021 µM. The same measure, in the same setting: next, SIQFFGEL [F079.04]: 0.016 µM; RTFSFQLI [Flu NS 114]: 0.026 µM and 0.027 µM; RNPRFYNL [1079.14]: 0.0079 µM. The same measure, in the same setting: the same measure for IVTMFEAL [14.0008]: 0.082 µM; for LSYSAGAL [FluA M1 117]: 0.06 µM and 0.031 µM.

SIQFFGERAL [F079.03]: the IC50 worked out at 0.021 µM. On the same count and under the same terms, the same measure for ISHNFCNL [14.0011]: 0.411 µM; for AAAANAAAM [F079.08]: 11 µM; for VGLSYSQTM [14.0118]: 0.071 µM. Still for that read-out and setting: the same measure for MNIQFTAV [FluA HA 403]: 0.026 µM; for VSYVNTNM [HBV core 115]: 0.033 µM and 0.06 µM. For the molecule KMITQRTI [FluA POL1 198], the IC50 is 0.3 µM. That is a sub-micromolar value. Same read-out and setting: the same measure for SGVENPGGYCL [928.07]: above 31 µM. The same measure, in the same setting: next, NAIVFKGL [17.0284]: 0.484 µM.

SHYAFSPM [F190.04] yielded an IC50 of 0.25 µM. Still for that read-out and setting: next, MGLIYNRM [Flu M1 128]: 0.016 µM and 0.0099 µM.

For SSLPFQNI [FluA HA 305], the IC50 was 0.0095 µM and 0.053 µM. Still for that read-out and setting: next, ASARFSWL [HBV env 329]: 0.323 µM and 0.049 µM.

For MGLKFRQL [HBV core 122], the IC50 is 0.0074 µM and 0.0063 µM. Take MITQFESL [Flu NS 31]: the IC50 was 0.042 µM and 0.064 µM. Same read-out and setting: the same measure for RFYRTCKL [FluA POL1 465]: 0.047 µM; for VYINTALL [FluA POL2 463]: 0.014 µM and 0.065 µM; for YMVPFIPL [22.0021]: 0.07 µM. On the same count and under the same terms, next, KNKFFSYL [22.0011]: 0.057 µM; AAAAAANAAAM [F079.09]: 31 µM.

Regarding IGRFYIQM [FluA NP 36], the IC50 is 0.024 µM and 0.042 µM. Still for that read-out and setting: next, HMWNFIGV [1476.12]: 0.202 µM; SVYDFYVWM [F138.03]: 0.0012 µM; RGPGRAFVTI [1087.01]: 31 µM.

Regarding LGYDYSYL [16.0004], the IC50 is 0.0034 µM. Same read-out and setting: next, VSAAFYHL [HBV pol 419]: 0.0052 µM and 0.007 µM. On the same count and under the same terms, the same measure for ANFSFRNTL [16.0031]: 0.006 µM.

A further experiment concerns the target T3, H-2Kd (mouse).
T3 chain 1: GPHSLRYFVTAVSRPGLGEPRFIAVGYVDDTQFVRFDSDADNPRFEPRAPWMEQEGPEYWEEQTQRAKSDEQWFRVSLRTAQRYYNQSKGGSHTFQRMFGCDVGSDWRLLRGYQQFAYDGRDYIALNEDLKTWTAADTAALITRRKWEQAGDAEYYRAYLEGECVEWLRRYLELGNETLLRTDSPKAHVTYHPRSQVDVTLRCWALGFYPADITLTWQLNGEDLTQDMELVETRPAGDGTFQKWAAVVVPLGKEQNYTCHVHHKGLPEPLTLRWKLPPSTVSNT
T3 chain 2: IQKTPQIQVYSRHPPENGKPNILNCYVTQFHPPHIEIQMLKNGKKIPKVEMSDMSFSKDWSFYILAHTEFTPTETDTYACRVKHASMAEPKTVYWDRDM
In words: competition. As to conditions: modification not given.
RYLENGKETL [1074.15]: the IC50 worked out at 0.08 µM. Same read-out and setting: next, SYVPSAEQIL [1081.06]: 0.28 µM. For the molecule HYYVSRDTL [F078.05], the IC50 came to 0.043 µM. Still for that read-out and setting: next, SYLTLAKHTI [F078.18]: 0.0044 µM; AYAPAKAAI [1114.01]: 0.0035 µM. On the same count and under the same terms, the same measure for SYVNTNMGL [HBV core 116]: 0.019 µM and 0.012 µM; for WYWGPSLYSI [HBV env 362]: 0.016 µM and 0.0083 µM.

YYVSRDTLL [F078.06] gave an IC50 of 0.099 µM. AYAGAKAAI [1114.07] registered an IC50 of 0.048 µM.
